From IntAct's records for PubMed 19015526

B1: Ribonucleoside-diphosphate reductase subunit M2 B (Homo sapiens), Q7LG56-1 (parent)
chain: MGDPERPEAAGLDQDERSSSDTNESEIKSNEEPLLRKSSRRFVIFPIQYPDIWKMYKQAQASFWTAEEVDLSKDLPHWNKLKADEKYFISHILAFFAASDGIVNENLVERFSQEVQVPEARCFYGFQILIENVHSEMYSLLIDTYIRDPKKREFLFNAIETMPYVKKKADWALRWIADRKSTFGERVVAFAAVEGVFFSGSFAAIFWLKKRGLMPGLTFSNELISRDEGLHCDFACLMFQYLVNKPSEERVREIIVDAVKIEQEFLTEALPVGLIGMNCILMKQYIEFVADRLLVELGFSKVFQAENPFDFMENISLEGKTNFFEKRVSEYQRFAVMAETTDNVFTLDADF

Variants of: B1
Conditions: with atm_human ATM

With MGDPERPEAAGLDQDERSSSDTNESEIKSNEEPLLRKSSRRFVIFPIQYPDIWKMYKQAQASFWTAEEVDLAKDLPHWNKLKADEKYFISHILAFFAASDGIVNENLVERFSQEVQVPEARCFYGFQILIENVHSEMYSLLIDTYIRDPKKREFLFNAIETMPYVKKKADWALRWIADRKSTFGERVVAFAAVEGVFFSGSFAAIFWLKKRGLMPGLTFSNELISRDEGLHCDFACLMFQYLVNKPSEERVREIIVDAVKIEQEFLTEALPVGLIGMNCILMKQYIEFVADRLLVELGFSKVFQAENPFDFMENISLEGKTNFFEKRVSEYQRFAVMAETTDNVFTLDADF [S72A] as the variant, how does the “effect of a mutation on the interaction” value read?
Its value is “decreasing interaction”.
